6 molecules from patent publication US20220411483A1 (Chugai, published 2022) can be followed below.

For orientation: Kd means the equilibrium constant for the complex coming apart. As usually defined, the kon is a measure of how fast the partners come together.

Test [1] deals with T1, Human IgA (recombinant, H (WT)-IgA1 / L (WT)) (human).
T1 construct: used as the antigen (analyte); also called hIgA
The test can be described thus: SPR (Biacore T200), antibody on Protein A/G, hIgA analyte, 37C; pH 8.0, 10 mM Ca; 1:1 binding model. The protocol: (§1) The hIgA-binding activities (dissociation constant KD (M)) of the antibodies isolated in (1-3) were assessed using Biacore T200 (GE Healthcare). Measurements were performed using a 0.05% tween20, 20 mmol/L ACES, 150 mmol/L NaCl (pH 7.4 or pH 5.8) solution containing 3 μM or 1.2 mM CaCl₂, or a 0.05% tween20, 20 mmol/L ACES, 150 mmol/L NaCl (pH 8.0) solution containing 0.1 μM or 10 mM CaCl₂ as a running buffer.
(§2) An appropriate amount of recombinant Protein A/G (Thermo Scientific) was immobilized onto a Sensor chip CMS (GE Healthcare) by an amino coupling method, and the antibody was allowed to bind thereto. Then, an appropriate concentration of hIgA (described in (1-1)) was injected as an analyte and allowed to interact with the antibody on the sensor chip. The measurement was carried out at 37° C. After measurement, 10 mmol/L glycine-HCl (pH 1.5) was injected to regenerate the sensor chip. From the measurement result, the dissociation constant KD (M) was calculated by curve fitting analysis and equilibrium analysis using Biacore T200 Evaluation Software (GE Healthcare).
(In general: In SPR one partner is held on a chip, and binding of the other changes the refractive index at the surface.)

Test [2] has as its target T1, Human IgA (recombinant, H (WT)-IgA1 / L …). The test can be described thus: SPR (Biacore T200), antibody on Protein A/G, hIgA analyte, 37C; pH 8.0, 0.1 µM Ca; 1:1 binding model. The protocol: as §1, §2
Test [3] has the same target. Kind of test: SPR (Biacore T200), antibody on Protein A/G, hIgA analyte, 37C; pH 5.8, 3 µM Ca; 1:1 binding model. Here is the method: as §1, §2
Test [4] has the same target. Kind of test: SPR (Biacore T200), antibody on Protein A/G, hIgA analyte, 37C; pH 7.4, 1.2 mM Ca; 1:1 binding model. The protocol:
as §1, §2

Test [5] shares this target. The test can be described thus: SPR (Biacore T200), antibody on Protein A/G, hIgA analyte, 37C; pH 5.8, 1.2 mM Ca; 1:1 binding model. The protocol: as §1, §2
Test [6] shares this target. The test can be described thus: SPR (Biacore T200), antibody on Protein A/G, hIgA analyte, 37C; pH 7.4, 3 µM Ca; 1:1 binding model. Here is the method:
as §1, §2

The target is the same in test [7]. Kind of test: SPR (Biacore T200), antibody on Protein A/G, hIgA analyte, 37C; pH 5.8, 1.2 mM Ca; Steady State Affinity. The protocol:
as §1, §2

For test [8] the target is unchanged. Kind of test: SPR (Biacore T200), antibody on Protein A/G, hIgA analyte, 37C; pH 7.4, 3 µM Ca; Steady State Affinity. The protocol:
as §1, §2

Test [9] shares this target. Kind of test: SPR (Biacore T200), antibody on Protein A/G, hIgA analyte, 37C; pH 7.4, 1.2 mM Ca; 1:1 binding model; pH 7.4, 1.2 mM Ca; 37 C; 1:1 binding model. The protocol:
as §1, §2

For test [10] the target is unchanged. Kind of test: SPR (Biacore T200), antibody on Protein A/G, hIgA analyte, 37C; pH 5.8, 3 µM Ca; Steady State Affinity. Here is the method: as §1, §2
In test [11] the target is T2, human IgA (hIgA) (human).
T2 construct: recombinant antigen
T2 sequence (VH, as listed by the source): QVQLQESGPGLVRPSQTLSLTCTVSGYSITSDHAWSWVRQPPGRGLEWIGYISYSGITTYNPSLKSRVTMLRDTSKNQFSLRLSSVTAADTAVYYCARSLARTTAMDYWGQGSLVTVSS
Kind of test: SPR (Reference Example 3). Here is the method: as §1, §2

The target of test [12] is T3, mouse FcγRI (mouse, UniProt P26151 25-297, limits assumed).
T3 construct: also called mFcγRI; mFc γ RI
T3 sequence (looked up): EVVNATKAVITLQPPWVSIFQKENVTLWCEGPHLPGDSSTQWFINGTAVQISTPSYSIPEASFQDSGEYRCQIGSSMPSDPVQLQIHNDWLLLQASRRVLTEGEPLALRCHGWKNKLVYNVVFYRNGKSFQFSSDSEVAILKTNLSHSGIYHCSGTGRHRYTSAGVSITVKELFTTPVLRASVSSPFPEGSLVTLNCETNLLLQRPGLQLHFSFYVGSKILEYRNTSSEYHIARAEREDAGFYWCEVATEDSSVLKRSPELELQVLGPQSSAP
Kind of test: SPR (Biacore), method of Reference Example 2. The protocol: (§3) The binding activities of these antibodies to the mouse FcγRs were evaluated by the method of Reference Example 2.

The target in test [13] is T4, mouse FcγRIV (mouse, UniProt A0A0B4J1G0 21-203).
T4 construct: also called mFcγRIV; mFc γ RIV
T4 sequence: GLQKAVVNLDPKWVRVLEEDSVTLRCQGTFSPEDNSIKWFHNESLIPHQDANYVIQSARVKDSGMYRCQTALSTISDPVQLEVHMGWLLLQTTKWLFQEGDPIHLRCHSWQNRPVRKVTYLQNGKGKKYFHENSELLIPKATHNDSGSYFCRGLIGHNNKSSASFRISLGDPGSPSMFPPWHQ
Kind of test: SPR (Biacore), method of Reference Example 2. Here is the method: as §3

Test [14] deals with T5, FcγRIIb extracellular domain with C-terminal His tag (human, UniProt P31994 43-217).
T5 construct: extracellular domain; also called FcgRIIb; not shown: His tag at the C terminus
T5 sequence (looked up): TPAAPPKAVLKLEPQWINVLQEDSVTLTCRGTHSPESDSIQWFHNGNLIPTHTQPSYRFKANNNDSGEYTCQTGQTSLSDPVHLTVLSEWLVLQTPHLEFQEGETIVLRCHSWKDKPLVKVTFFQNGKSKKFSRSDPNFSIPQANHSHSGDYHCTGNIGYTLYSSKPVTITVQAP
The test can be described thus: SPR; ratio of KD values, reference IL6R-G1d/IL6R-L.

Test [15] concerns the target T6, FcγRIIa R type extracellular domain with C-terminal His tag (human, UniProt P12318 34-217).
T6 construct: extracellular domain; also called FcgRIIaR; not shown: His tag at the C terminus
T6 sequence (looked up): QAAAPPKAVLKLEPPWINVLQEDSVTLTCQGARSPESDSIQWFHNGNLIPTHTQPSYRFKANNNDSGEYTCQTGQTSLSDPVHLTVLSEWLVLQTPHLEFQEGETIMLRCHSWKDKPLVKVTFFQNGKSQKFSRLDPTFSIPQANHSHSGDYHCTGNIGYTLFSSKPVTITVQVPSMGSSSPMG
Kind of test: SPR; ratio of KD values, reference IL6R-G1d/IL6R-L.

Test [16] concerns the target T7, human FcγRIIb extracellular domain with C-terminal His tag (human, UniProt P31994 43-217).
T7 construct: extracellular domain; also called FcgRIIb
T7 sequence (looked up): T5 sequence (looked up)
The test can be described thus: SPR, KD of IL6R-G1d/IL6R-L divided by KD of variant.

The target of test [17] is T8, human FcγRIIIa V type extracellular domain with C-terminal His tag (human, UniProt P08637 17-208).
T8 construct: extracellular domain; also called FcgRIIIaV
T8 sequence (P08637 17-208 F176V): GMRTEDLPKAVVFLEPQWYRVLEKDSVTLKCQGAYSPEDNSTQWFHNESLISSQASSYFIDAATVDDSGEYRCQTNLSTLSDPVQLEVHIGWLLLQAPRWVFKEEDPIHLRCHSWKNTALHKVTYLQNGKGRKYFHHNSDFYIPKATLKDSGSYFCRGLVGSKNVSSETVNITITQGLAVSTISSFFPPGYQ
The description is as above.

For test [18], the target named is T9, human FcγRIIa H type extracellular domain with C-terminal His tag (human, UniProt P12318 34-217).
T9 construct: extracellular domain; also called FcgRIIaH
T9 sequence (looked up): T6 sequence (looked up) with R134H
The test is described as above.

The target in test [19] is T10, human FcγRIIa R type extracellular domain with C-terminal His tag (human, UniProt P12318 34-217).
T10 construct: extracellular domain; also called FcgRIIaR
T10 sequence (looked up): T6 sequence (looked up)
The description is as above.

Test [20] has as its target T11, human FcγRIa extracellular domain with C-terminal His tag (human, UniProt P12314 16-292).
T11 construct: Whole entry named; also called FcgRIa
The description is as above.

Test [21] concerns the target T7, human FcγRIIb extracellular domain with …. Kind of test: SPR, antibody captured, FcgR analyte.
The target of test [22] is T8, human FcγRIIIa V type extracellular …. The test can be described thus: SPR, antibody captured, FcgR analyte.
Test [23] has as its target T9, human FcγRIIa H type extracellular …. Kind of test: SPR, antibody captured, FcgR analyte.
Test [24] concerns the target T10, human FcγRIIa R type extracellular …. The test can be described thus: SPR, antibody captured, FcgR analyte.
For test [25], the target named is T11, human FcγRIa extracellular domain with …. The test can be described thus: SPR, antibody captured, FcgR analyte.

Changes are numbered by the printed parent chain.

T1 sequence (VH, as listed by the source): as the sequence (VH, as listed by the source) above
T11 sequence (P12314 16-292): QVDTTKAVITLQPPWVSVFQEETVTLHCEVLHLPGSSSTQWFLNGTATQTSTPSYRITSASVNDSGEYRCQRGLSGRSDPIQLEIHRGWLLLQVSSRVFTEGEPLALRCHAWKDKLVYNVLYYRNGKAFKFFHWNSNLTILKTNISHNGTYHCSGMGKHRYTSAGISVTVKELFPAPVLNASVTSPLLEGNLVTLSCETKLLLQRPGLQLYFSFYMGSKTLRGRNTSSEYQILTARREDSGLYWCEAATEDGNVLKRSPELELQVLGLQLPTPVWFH

B1: GA1-IgG1 (antibody, V domains shown)
VH: EVQLVQSGAEVKKPGSSVKVSCKASGGTFSSYAISWVRQAPGQGLEWMGGIIPIFGTANYAQKFQGRVTITADESTSTAYMELSSLRSEDTAVYYCARVAPGNWGSPYFDYWGQGTLVTVSS
VL: DIQMTQSPSSLSASVGDRVTITCRASQSIEDDLAWYQQKPGKAPKLLIYEASSLQSGVPSRFSGSGSGTDFTLTISSLQPEDFATYYCQQRDSSPLTFGQGTKVEIKR
For the molecule B1, the Kd is 100 nM in [1]; 220 nM in test [2]; 150 nM in test [3]; 150 nM in [4]; 140 nM in [5]; 190 nM in [6].

B2: GA2-IgG1 (antibody, V domains shown)
VH: QVQLVQSGAEVKKPGSSVKVSCKASGGTFSSYAISWVRQAPGQGLEWMGGIIPIFGTANYAQKFQGRVTITADESTSTAYMELSSLRSEDTAVYYCARPRWETAISSDAFDIWGQGTMVTVSS
VL: B1 VL with E30S, A34N, S53N, R91H, D92S
In the case of B2, the Kd came out at 4000 nM in test [7], 6700 nM in test [8], 5000 nM in test [10] and 39 nM in test [4]. In addition, the kon in test [9] is 400000 M⁻¹ s⁻¹.

B3: GA2-IgG1 (antibody, V domains shown)
VH: B2 VH
VL: B1 VL with E30S, A34N, S53N, R91H, D92S
notes: also called GA-IgG1
As for B3, in [11], the “Ca-dependent hIgA-binding activity (fold)” value is at least 100 times.

B4: VH3/L (WT)-mIgG1-mF46 (antibody)
heavy: QVQLQESGPGLVKPSETLSLTCAVSGHSISHDHAWSWVRQPPGEGLEWIGFISYSGITNYNPSLQGRVTISRDNSKNTLYLQMNSLRAEDTAVYYCARSLARTTAMDYWGEGTLVTVSSAKTTPPSVYPLAPGSAAQTNSMVTLGCLVKGYFPEPVTVTWNSGSLSSGVHTFPAVLQSDLYTLSSSVTVPSSTWPSETVTCNVAHPASSTKVDKKIVPRDCGCKPCICTVPEVSDVFIFPPKPKDVLTITLTPKVTCVVVDISKDDPEVQFSWFVDDVEVHTAQTQPREEQFNSTFRSVSELPIMHQDWLNGKEFKCRVNSADFPAPIEKTISKTKGRPKAPQVYTIPPPKEQMAKDKVSLTCMITDFFPEDITVEWQWNGQPAENYKNTQPIMDTDGSYFVYSKLNVQKSNWEAGNTFTCSVLHEGLHNHHTEKSLSHSPGK
light: not shown
For the molecule B4, the binding result in test [12] and in [13] was “no binding” throughout.

B5: IL6R-P587/IL6R-L (antibody, human IgG1, kappa)
heavy: QVQLQESGPGLVKPSETLSLTCAVSGHSISHDHAWSWVRQPPGEGLEWIGFISYSGITNYNPSLQGRVTISRDNSKNTLYLQMNSLRAEDTAVYYCARSLARTTAMDYWGEGTLVTVSSASTKGPSVFPLAPSSKSTSGGTAALGCLVKDYFPEPVTVSWNSGALTSGVHTFPAVLQSSGLYSLSSVVTVPSSSLGTQTYICNVNHKPSNTKVDKKVEPKSCDKTHTCPPCPAPDLLGGDSVFLFPPKPKDTLMISRTPEVTCVVIDVAEEDGEVKFNWYVDGVEVHNAKTKPREEQYNSTYRVVSVLTVLHQDWLNGKEYKCKVSNKALPAPIEKTISKAKGQPREPQVYTLPPSRDELTKNQVSLTCLVKGFYPSDIAVEWESNGQPENNYKTTPPVLDSDGSFFLYSKLTVDKSRWQQGNVFSCSVMHEALHNHYTQKSLSLSP
light: not shown
notes: human IgG1
On to B5, for which the “KD of G1d for FcgRIIb/KD of Each Variant for FcgRIIb” value in test [14] was 256. For the same molecule, the “KD of G1d for FcgRIIaR/KD of Each Variant for FcgRIIaR” value in [15] came to 1.4.

B6: IL6R-G1dGSS/IL6R-L (antibody, human IgG1, kappa)
heavy: B5 heavy with D235E, D240P, I266V, A269S, E270H, G273P, A329G, A332S, P333S
light: not shown
Regarding B6, the “Relative FcgRIIb-binding Activity” value in test [16] was 0.9. For the same molecule, the “Relative FcgRIIIaV-binding Activity” value in [17] came to 0.231. For the same molecule, the “Relative FcgRIIaH-binding Activity” value in test [18] worked out at 0.517. Besides, the “Relative FcgRIIaR-binding Activity” value in test [19] came out at 0.79. Further, in test [20], the “Relative FcgRIa-binding Activity” value was found to be 0.97. Also, the Kd came out at 2400 nM in test [21]; 1600 nM in [22]; 1200 nM in test [23]; 1400 nM in test [24]; 0.33 nM in test [25].
